# Laboratory results taken from patent publication US20170233490A1 (Hoffmann-La Roche, published 2017).
# T1: human HER4 Extracellular Domain (ECD) (human, UniProt Q15303 26-651)
# T1 construct: also called Her4 ECD; HER4-ECD
# T1 sequence: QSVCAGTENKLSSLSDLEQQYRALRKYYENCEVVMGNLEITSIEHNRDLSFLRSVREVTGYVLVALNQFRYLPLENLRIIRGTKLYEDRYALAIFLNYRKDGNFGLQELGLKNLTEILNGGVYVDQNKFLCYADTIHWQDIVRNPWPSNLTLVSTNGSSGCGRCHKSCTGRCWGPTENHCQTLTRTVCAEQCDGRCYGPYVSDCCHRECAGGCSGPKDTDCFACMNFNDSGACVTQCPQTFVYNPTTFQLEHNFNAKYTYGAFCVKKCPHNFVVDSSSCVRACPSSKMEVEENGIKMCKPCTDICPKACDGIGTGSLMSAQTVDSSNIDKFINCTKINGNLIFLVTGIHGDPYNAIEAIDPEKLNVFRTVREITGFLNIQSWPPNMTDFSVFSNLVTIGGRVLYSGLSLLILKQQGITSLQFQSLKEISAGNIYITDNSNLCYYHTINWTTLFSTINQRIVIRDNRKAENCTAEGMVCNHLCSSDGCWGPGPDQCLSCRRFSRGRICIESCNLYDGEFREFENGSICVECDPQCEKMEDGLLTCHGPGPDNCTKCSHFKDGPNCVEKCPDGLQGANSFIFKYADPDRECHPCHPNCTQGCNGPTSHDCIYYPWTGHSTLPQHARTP
# T2: TtSlyDcas
# T2 construct: scaffold without hairpin insert, negative control
# T2 chain: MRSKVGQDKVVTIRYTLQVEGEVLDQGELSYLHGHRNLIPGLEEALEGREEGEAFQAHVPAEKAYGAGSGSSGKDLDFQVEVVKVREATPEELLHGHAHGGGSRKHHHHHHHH
# T3: TgSlyDΔIF
# T3 construct: scaffold without hairpin insert, negative control
# T3 chain: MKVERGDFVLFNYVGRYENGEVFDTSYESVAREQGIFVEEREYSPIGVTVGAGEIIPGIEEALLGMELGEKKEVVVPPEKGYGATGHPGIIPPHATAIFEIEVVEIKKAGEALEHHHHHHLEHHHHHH
# T4: TgSlyDcys-Her3
# T4 chain: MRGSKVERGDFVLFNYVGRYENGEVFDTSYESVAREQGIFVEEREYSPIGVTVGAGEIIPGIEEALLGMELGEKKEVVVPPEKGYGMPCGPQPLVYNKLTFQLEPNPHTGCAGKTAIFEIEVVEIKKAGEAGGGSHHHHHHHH
# T5: TtSlyDcas-Her3
# T5 chain: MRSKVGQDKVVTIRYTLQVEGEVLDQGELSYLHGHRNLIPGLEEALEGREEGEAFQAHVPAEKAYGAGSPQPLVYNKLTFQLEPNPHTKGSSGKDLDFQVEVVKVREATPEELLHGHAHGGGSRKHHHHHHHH
# T6: TtSlyDcys-Her3
# T6 chain: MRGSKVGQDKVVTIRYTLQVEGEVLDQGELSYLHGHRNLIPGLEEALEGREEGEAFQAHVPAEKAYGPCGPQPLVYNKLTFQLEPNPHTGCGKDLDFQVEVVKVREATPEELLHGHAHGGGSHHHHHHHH
# T7: TgSlyDser-Her3
# T7 chain: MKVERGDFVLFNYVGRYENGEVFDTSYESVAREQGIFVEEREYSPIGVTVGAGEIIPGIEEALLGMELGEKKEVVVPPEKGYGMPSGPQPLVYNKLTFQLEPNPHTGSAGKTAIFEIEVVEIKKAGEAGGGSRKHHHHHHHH
# B1: anti-HER3 antibody M-08-11 (antibody, V domains shown)
# VH: QAYLQQSGAELMRPGASVRMSCQASGYTFTSYTIHWLKQTPRQGLEWIGAIYPRNGDFSYNQKFKDKASLTVDTSSSTAYMHLSSLTSEDSAVYFCARTINYGDWFAYWGQGTLVTVSA
# VL: DIQMIQSPASLFVSEGETVIITCRASENIYSNLAWYHQKKGKSPQVLVYAAIKLADGVPLRFSGSGSGTQFSLKINSLQSEDFGSYYCQHFWGPPYTFGSGTNLEIK
# notes: also called M-011; <Her3> M-08-11
# B2: M-15-02 (antibody, V domains shown)
# VH: QVQLQQSGAELAKPGASVKMSCKTSGYTLTDYWIHWVKQRPGQGLEWIGYINPYTGYTESNQKFKDKATLTADKSSNTAYIQLSSLTSEDSAVYYCARPYYYGDYWGQGTTLTVSS
# VL: QIVLTQSPAIMSASPGERVTITCSASSSVSYMHWFQQKPGTSPKLLIYSTSNLASGVPARFSGSGSGTSYSLTISRMEAEDAATYYCQQRSSYPFTFGSGTKLEIK
# notes: murine hybridoma clone
# B3: M-15-04 (antibody, V domains shown)
# VH: B2 VH
# VL: B2 VL
# notes: murine hybridoma clone
# B4: DIB-MoAb (monovalent antibody based on M-05-74) (antibody, V domains shown)
# VH: B2 VH
# VL: B2 VL
# notes: also called DIB-74 in the monovalent MoAb format; monovalent M-05-74
# B5: bispecific HER3/HER2 antibody DIBxPERT (bispecific antibody, human IgG1, kappa)
# heavy 1: not shown
# light 1: DIQMTQSPSSLSASVGDRVTITCKASQDVSIGVAWYQQKPGKAPKLLIYSASYRYTGVPSRFSGSGSGTDFTLTISSLQPEDFATYYCQQYYIYPYTFGQGTKVEIKSSASTKGPSVFPLAPSSKSTSGGTAALGCLVKDYFPEPVTVSWNSGALTSGVHTFPAVLQSSGLYSLSSVVTVPSSSLGTQTYICNVNHKPSNTKVDKKVEPKSC
# heavy 2: not shown
# light 2: QIVLTQSPAIMSASPGERVTITCSASSSVSYMHWFQQKPGTSPKLLIYSTSNLASGVPARFSGSGSGTSYSLTISRMEAEDAATYYCQQRSSYPFTFGSGTKLEIKRTVAAPSVFIFPPSDEQLKSGTASVVCLLNNFYPREAKVQWKVDNALQSGNSQESVTEQDSKDSTYSLSSTLTLSKADYEKHKVYACEVTHQGLSSPVTKSFNRGEC
# notes: also called DIBxPERT CrossMab
# What was measured:
# [1] = target: T1, human HER4 Extracellular Domain (ECD); test: stated in the epitope binning example
# [2] = target: T8, human HER3 Extracellular Domain (ECD) (human, UniProt P21860 20-643); test: SPR (Biacore) sensorgram overlay; the legend gives 100 nM, antibody * Her-3 ECD interaction without Heregulin; buffer reference (curve 5) stays at 0 RU
# T8 construct: human recombinant, 68 kDa; 'closed' conformation without ligand; also called Her3 ECD; Her-3 ECD
# [3] = target: T9, HER3 ECD-HRG complex (human, UniProt P21860 20-643); test: SPR (Biacore B3000, 25 °C), antibody captured by RAM-Fcγ; 90 nM Heregulin*Her-3 ECD complex injected
# T9 construct: HER3 ECD preincubated with a 3- to 6-fold molar excess of Heregulin ('open' conformation); biotinylated Her3-ECD in the ribosome display; also called HER3-ECD/HRG1β
# Protocol: A CMS series sensor was mounted into the system and was normalized in HBS-ET buffer (10 mM HEPES pH 7.4, 150 mM NaCl, 3 mM EDTA, 0.005% w/v Tween 20) according to the manufacturer's instructions. The sample buffer was the system buffer supplemented with 1 mg/ml CMD (Carboxymethyldextran). The system operated at 25° C. 10000 RU RAM-Fcγ (relative units of Fcγ-fragment Rabbit Anti-Mouse IgG/Jackson Laboratories) were immobilized according to the manufacturer's instructions using EDC/NHS chemistry on all flow cells. The sensor was deactivated using 1M ethanolamine. Analytes in solution were injected at 100 μl/min at different concentration steps of 0 nM, 1.1 nM, 3.7 nM, 11.1 nM, 33.1 nM and 90 nM for 2 min. The dissociation was monitored for 5 min. Acidic regeneration of the sensor surface was achieved using three consecutive injections of 10 mM Glycine pH 1.7 at 30 μl/min for 60 sec. Kinetic data were evaluated according to a Langmuir fit.
# [4] = target: T10, human HER2 (full length, on cells) (human, UniProt P04626 23-1255); test: IHC (Ventana Benchmark XT) on formalin-fixed, paraffin-embedded HEK293 cells transiently transfected with full length HER2
# T10 construct: HEK293 cells transfected with full length HER2 (IHC); MCF-7 cells (co-immunoprecipitation)
# Protocol: (§1) All selected clones were tested for reactivity and specificity in IHC. […] After an additional fixation in formalin overnight the Agarose blocks were embedded in paraffin. Untransfected HEK293 cells were used as negative controls and treated accordingly to the transfected cells. After paraffin embedding 3 μm thin sections were prepared using a microtome. The sections were mounted on glass microscopy slides and dried for 2 h. All further steps of the immunohistochemical staining procedure were carried out using a Ventana Benchmark XT. The slides were dewaxed and antigen retrieval was performed by applying heat for 1 hour. For antigen retrieval the Ventana buffer CC1 was used. The antibodies were used at a concentration of 1 μg/ml. For the detection of bound antibody the Ventana UltraView detection kit was used.
# [5] = target: T11, human HER2 Extracellular Domain (ECD) (human, UniProt P04626 23-652); test: ELISA, coated antigen, hybridoma supernatant
# T11 construct: human recombinant, 69.6 kDa; also called Her2 ECD; HER2_ECD
# Protocol: (§2) For the ELISA the screening an antigen down format was used. […] Hybridoma Supernatant was added to the plates and incubated for 1 h at room temperature. Bound antibody was detected with a HRP-labeled F(ab′)₂ goat anti-mouse Fcγ (Dianova) and ABTS (Roche) was used as a HRP-substrate.
# [6] = target: T12, human HER1 Extracellular Domain (ECD) (human, UniProt P00533 25-645); test: ELISA, coated antigen, hybridoma supernatant
# T12 construct: also called Her1 ECD; HER1-ECD
# Protocol: as §2
# [7] = target: T2, TtSlyDcas; test: ELISA, coated antigen
# Protocol: as §2
# (§3) As negative controls the scaffold proteins TtSlyDcas and TgSlyDΔIF were used.
# [8] = target: T1, human HER4 Extracellular Domain (ECD); test: ELISA, coated antigen
# Protocol: as §2, §3
# [9] = target: T3, TgSlyDΔIF; test: ELISA, coated antigen
# Protocol: as §2, §3
# [10] = target: T11, human HER2 Extracellular Domain (ECD); test: ELISA, coated antigen
# Protocol: as §2, §3
# [11] = target: T4, TgSlyDcys-Her3; test: ELISA, coated antigen
# Protocol: as §2, §3
# [12] = target: T5, TtSlyDcas-Her3; test: ELISA, coated antigen
# Protocol: as §2, §3
# [13] = target: T12, human HER1 Extracellular Domain (ECD); test: ELISA, coated antigen
# Protocol: as §2, §3
# [14] = target: T8, human HER3 Extracellular Domain (ECD); test: ELISA, coated antigen
# Protocol: as §2, §3
# [15] = target: T6, TtSlyDcys-Her3; test: ELISA, coated antigen
# Protocol: as §2, §3
# [16] = target: T7, TgSlyDser-Her3; test: ELISA, coated antigen
# Protocol: as §2, §3
# [17] = target: T2, TtSlyDcas; test: ELISA, coated antigen 0.5 µg/ml, hybridoma supernatant
# Protocol: as §2
# [18] = target: T3, TgSlyDΔIF; test: as above
# Protocol: as §2
# [19] = target: T13, human HER1 (full length, on cells) (human, UniProt P00533 25-1210); test: IHC (Ventana Benchmark XT) on formalin-fixed, paraffin-embedded HEK293 cells transiently transfected with full length HER1
# T13 construct: HEK293 cells transfected with full length HER1, fixed and embedded (IHC); also called EGFR
# Protocol: as §1
# [20] = target: T9, HER3 ECD-HRG complex; test: SPR Biacore 3000, antibody captured via anti-human Fc, 25 C
# Protocol: (§4) A CM5 series sensor was mounted into the system and was normalized in HBS-ET buffer (10 mM HEPES pH 7.4, 150 mM NaCl, 3 mM EDTA, 0.005% w/v Tween 20) according to the manufacturer's instructions. The sample buffer was the system buffer supplemented with 1 mg/ml CMD (Carboxymethyldextran, Sigma #86524). The system operated at 25° C. 10000 RU monoclonal murine anti-human Fc antibody (MAK<h-Fc> M-R10Z8 E9, Roche Diagnostics GmbH, Penzberg, Germany) were immobilized using EDC/NHS chemistry on all four flow cells. The sensor was deactivated using 1M ethanolamine.
# [21] = target: T9, HER3 ECD-HRG complex; test: SPR Biacore 3000, sequential injection: HER2-ECD first, then HER3-ECD/HRG1β, 270 nM each
# Protocol: as §4
# (§5) The association and dissociation rates were monitored for 10 minutes and 8 minutes, respectively.
# [22] = target: T9, HER3 ECD-HRG complex; test: SPR Biacore 3000, sequential injection: HER3-ECD/HRG1β first, then HER2-ECD, 270 nM each
# Protocol: as §4, §5
binding result [4],binding result [5],binding result [6],ELISA signal [7],ELISA signal [8],ELISA signal [9],ELISA signal [10],ELISA signal [11],ELISA signal [12],ELISA signal [13],ELISA signal [14],ELISA signal [15],ELISA signal [16],binding result [17],binding result [18],binding result [19],Kd [20] [nM],MR (Molar Ratio) [20],koff [20] [s⁻¹],kon [20] [M⁻¹ s⁻¹],other results,Binder
–,–,–,–,–,–,–,–,–,–,–,–,–,–,–,–,–,–,–,–,binding result [1]: no binding; binding result [2]: binds; binding result [3]: binds,B1
no binding (tested: 1 µg/ml),no binding,no binding,0.04,3.19,0.04,0.025,1.78,1.76,0.024,3.15,1.52,1.98,no binding,no binding,no binding (tested: 1 µg/ml),–,–,–,–,–,B2
no binding (tested: 1 µg/ml),no binding,no binding,0.04,3.19,0.033,0.064,1.5,1.85,0.067,3.17,1.46,1.83,no binding,no binding,no binding (tested: 1 µg/ml),–,–,–,–,–,B3
–,–,–,–,–,–,–,–,–,–,–,–,–,–,–,–,2.1,0.6,0.00023,110000,t1/2-diss [20]: 51 min,B4
–,–,–,–,–,–,–,–,–,–,–,–,–,–,–,–,3.9,0.5,0.00033,84000,"MR (molar ratio), second injection [21]: 0.7; MR (molar ratio), first injection [22]: 0.8; t1/2-diss [20]: 35 min",B5
